The values below come from patent publication US20170016915A1, “SCREENING TARGETS AND COMPOSITIONS AND METHODS FOR TREATMENT OF CILIOPATHY DISORDERS” (Duke University, priority 2014, published 2017).

Sequences and labels used below:
T1: BBS10 (UniProt Q8TAM1 1-723, limits assumed)
T1 construct: Tested in the same co-IP series as the Myc- or HA-tagged BBS proteins
T1 sequence (looked up): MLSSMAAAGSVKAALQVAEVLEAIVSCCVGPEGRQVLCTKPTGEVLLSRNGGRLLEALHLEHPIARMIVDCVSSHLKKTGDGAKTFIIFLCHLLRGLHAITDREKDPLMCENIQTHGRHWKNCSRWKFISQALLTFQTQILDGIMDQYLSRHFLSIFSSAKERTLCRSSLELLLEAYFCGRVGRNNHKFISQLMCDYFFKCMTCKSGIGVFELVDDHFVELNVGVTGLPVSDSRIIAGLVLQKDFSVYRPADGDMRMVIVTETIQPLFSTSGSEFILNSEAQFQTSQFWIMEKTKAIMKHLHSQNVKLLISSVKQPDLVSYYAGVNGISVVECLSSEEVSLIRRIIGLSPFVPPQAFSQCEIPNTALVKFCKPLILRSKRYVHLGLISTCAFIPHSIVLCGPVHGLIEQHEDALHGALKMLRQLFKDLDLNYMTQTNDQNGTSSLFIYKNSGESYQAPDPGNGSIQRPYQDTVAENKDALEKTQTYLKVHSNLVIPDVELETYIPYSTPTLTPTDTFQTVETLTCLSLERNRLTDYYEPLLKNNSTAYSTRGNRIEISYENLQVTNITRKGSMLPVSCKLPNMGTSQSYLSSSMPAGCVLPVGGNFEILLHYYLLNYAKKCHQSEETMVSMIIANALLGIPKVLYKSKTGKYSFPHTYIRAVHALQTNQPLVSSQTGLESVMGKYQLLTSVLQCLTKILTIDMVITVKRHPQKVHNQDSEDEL

B1: GFP-tagged PSMB1 (proteasome subunit beta type 1, subunit in the 20S particle) (other, UniProt P20618 1-241, looked up)
chain: MLSSTAMYSAPGRDLGMEPHRAAGPLQLRFSPYVFNGGTILAIAGEDFAIVASDTRLSEGFSIHTRDSPKCYKLTDKTVIGCSGFHGDCLTLTKIIEARLKMYKHSNNKAMTTGAIAAMLSTILYSRRFFPYYVYNIIGGLDEEGKGAVYSFDPVGSYQRDSFKAGGSASAMLQPLLDNQVGFKNMQNVEHVPLSLDRAMRLVKDVFISAAERDVYTGDALRICIVTKEGIREETVSLRKD
notes: Transfected construct; not shown: GFP tag
B2: GFP-tagged regulatory proteasome non-ATPase subunit 13 (RPN13) (other, UniProt Q16186 1-407, looked up)
chain: MTTSGALFPSLVPGSRGASNKYLVEFRAGKMSLKGTTVTPDKRKGLVYIQQTDDSLIHFCWKDRTSGNVEDDLIIFPDDCEFKRVPQCPSGRVYVLKFKAGSKRLFFWMQEPKTDQDEEHCRKVNEYLNNPPMPGALGASGSSGHELSALGGEGGLQSLLGNMSHSQLMQLIGPAGLGGLGGLGALTGPGLASLLGSSGPPGSSSSSSSRSQSAAVTPSSTTSSTRATPAPSAPAAASATSPSPAPSSGNGASTAASPTQPIQLSDLQSILATMNVPAGPAGGQQVDLASVLTPEIMAPILANADVQERLLPYLPSGESLPQTADEIQNTLTSPQFQQALGMFSAALASGQLGPLMCQFGLPAEAVEAANKGDVEAFAKAMQNNAKPEQKEGDTKDKKDEEEDMSLD
notes: as for B1
B3: GFP-tagged regulatory proteasome non-ATPase subunit 10 (RPN10) (other, UniProt P55036 1-377, looked up)
chain: MVLESTMVCVDNSEYMRNGDFLPTRLQAQQDAVNIVCHSKTRSNPENNVGLITLANDCEVLTTLTPDTGRILSKLHTVQPKGKITFCTGIRVAHLALKHRQGKNHKMRIIAFVGSPVEDNEKDLVKLAKRLKKEKVNVDIINFGEEEVNTEKLTAFVNTLNGKDGTGSHLVTVPPGPSLADALISSPILAGEGGAMLGLGASDFEFGVDPSADPELALALRVSMEEQRQRQEEEARRAAAASAAEAGIATTGTEDSDDALLKMTISQQEFGRTGLPDLSSMTEEEQIAYAMQMSLQGAEFGQAESADIDASSAMDTSEPAKEEDDYDVMQDPEFLQSVLENLPGVDPNNEAIRNAMGSLASQATKDGKKDKKEEDKK
notes: Transfected expression construct; also called GFP-tagged RPN10; not shown: GFP tag
B4: BBS5 (other, UniProt Q8N3I7 1-341, looked up)
chain: MSVLDALWEDRDVRFDLSAQQMKTRPGEVLIDCLDSIEDTKGNNGDRGRLLVTNLRILWHSLALSRVNVSVGYNCILNITTRTANSKLRGQTEALYILTKCNSTRFEFIFTNLVPGSPRLFTSVMAVHRAYETSKMYRDFKLRSALIQNKQLRLLPQEHVYDKINGVWNLSSDQGNLGTFFITNVRIVWHANMNDSFNVSIPYLQIRSIKIRDSKFGLALVIESSQQSGGYVLGFKIDPVEKLQESVKEINSLHKVYSASPIFGVDYEMEEKPQPLEALTVEQIQDDVEIDSDGHTDAFVAYFADGNKQQDREPVFSEELGLAIEKLKDGFTLQGLWEVMS
notes: Tested in the same co-IP series as the Myc- or HA-tagged BBS proteins

The test system of assay [1] is bbs4, bbs1 and ofd1 morphant zebrafish embryos. Kind of assay: Convergent extension (CE) and somite defects in morphant zebrafish embryos, coinjection. In kind it is in vivo. The note with it: coinjection with bbs4 morpholino. On the procedure: Morpholinos against bbs1 ([NT] ID NO: 13), bbs4 ([NT] ID NO: 14), and ofd1 ([NT] ID NO: 15) were purchased from Gene Tools, LLC. Human RPN10, RPN13, and RPT6 mRNA were in vitro transcribed with a mMESSAGE mMACHINE SP6 Kit (Ambion). SFN was dissolved in DMSO (Sigma-Aldrich) at a stock concentration of 1 M and further diluted in water to 10 mM. The morpholino and mRNA or SFN were mixed, and a volume of 0.5 nl was microinjected.

Assay [2] deals with her4 expression (Notch target) in bbs4 morphant zebrafish embryos. The assay is described as follows: Whole-mount RNA in situ hybridization of her4 in morphant zebrafish. The note with it: bbs4 morphants, coinjection, 4.5 dpf. It counts as in vivo. The method, then: Morpholinos against bbs1 ([NT] ID NO: 13), bbs4 ([NT] ID NO: 14), and ofd1 ([NT] ID NO: 15) were purchased from Gene Tools, LLC. Human RPN10, RPN13, and RPT6 mRNA were in vitro transcribed with a mMESSAGE mMACHINE SP6 Kit (Ambion). SFN was dissolved in DMSO (Sigma-Aldrich) at a stock concentration of 1 M and further diluted in water to 10 mM. The morpholino and mRNA or SFN were mixed, and a volume of 0.5 nl was microinjected. Zebrafish embryos were fixed overnight in 4% PFA at 4° C. Residual pigment was removed by bleaching with 3% H2O2/0.5% KOH.

Assay [3] relates to NICD. The assay is described as follows: Immunoblot of NICD in BBS4-overexpressing cells treated with proteasome inhibitors. In kind it is cell-based. The note with it: MG132 30 μM 5 hours, lactacystin 20 μM 5 hours.
Description: (§2) Transfected cells and mouse tissues were lysed in modified RIPA buffer [150 mM sodium chloride, 50 mM Tris-HCl, pH7.4, 1% nonidet P-40, 0.1% sodium deoxycholate, 1 mM EDTA] with 1× proteasome inhibitor (Roche) and centrifuged at 4° C. for 15 minutes. […] Total protein in each sample was separated by SDS-PAGE on 4% to 15% Mini-PROTEAN TGX Precast Gel (Bio-Rad) with a Spectra Multicolor Broad Range Protein Ladder (Fermentas) and transferred to an Immun-Blot PVDF Membrane (Bio-Rad). […] Densitometric analysis was performed with Image Lab (Bio-Rad), Quantity One (Bio-Rad), or ImageJ 1.44p (NIH) software.
(§3) Drug treatment was carried out at a final concentration of 10 μM SFN (Sigma-Aldrich) for 6 to 24 hours, 30 μm N-carbobenzoxyl- ? -leucinyl- ? -leucinyl- ? -norleucinal (MG132; Calbiochem) for 5 hours, 20 μM lactacystin (EMD Bioscience) for 5 hours, and 50 ng/ml TNF-α (Sigma-Aldrich) for 12 hours.
In assay [4] the test system is JAG1. Kind of assay: Immunoblot of GFP-JAG1 in BBS4-overexpressing cells treated with proteasome inhibitor. In kind it is cell-based. The note with it: proteasome inhibitor 5 hours.
Description: as §2, §3
Assay [5] concerns the target B4. The assay is described as follows: co-immunoprecipitation, 1% Triton X-100. On the procedure:
(§1) First, an unbiased mass spectrometry screen was conducted to identify putative OFD1-interacting proteins. This experiment uncovered a spectrum of proteasomal subunits including regulatory proteasome ATPase subunit 6 (RPT6), a finding confirmed by semiendogenous coimmunoprecipitation (FIG. 4A). […] To test the physiological relevance of a BBS-proteasome interactome, it was determined that BBS1 and RPN10 interacted at endogenous levels in protein lysates isolated from C57BL/6 mouse testes (FIG. 4A). To probe the relevance of these interactions, the question was asked whether loss of OFD1 or BBS4 alters the composition of the proteasome with respect to its subunits. Using a stable cell line expressing tagged regulatory proteasome non-ATPase subunit 11 (RPN11) (37), OFD1 was suppressed, 26S proteasome complexes were purified, and a robust reduction was observed (60%±8%) of 26S-bound regulatory proteasome ATPase subunit 2 (RPT2) in OFD1-depleted cells in comparison with that in control, while total RPT2 protein abundance was not affected by OFD1 depletion (FIG. 4B).

Assay [6] concerns the target T1, BBS10. The assay is described as follows: co-immunoprecipitation, 1% Triton X-100. On the procedure:
as §1

Assay [7] has as its target B2. Kind of assay: co-immunoprecipitation, 1% Triton X-100. On the procedure: as §1
Assay [8] concerns the target T2, GFP-tagged regulatory proteasome ATPase subunit 6 (RPT6) (UniProt P62195 1-406).
T2 construct: Transfected construct; not shown: GFP tag
Kind of assay: co-immunoprecipitation, 1% Triton X-100. On the procedure: as §1

For assay [9], the target named is B3. The assay is described as follows: co-immunoprecipitation, 1% Triton X-100. On the procedure: as §1

Where a SMILES comes first, the peptide text is derived from it. The star is where a group is joined. Cbz = O=C(OCc1ccccc1)*

T2 sequence (P62195 whole entry): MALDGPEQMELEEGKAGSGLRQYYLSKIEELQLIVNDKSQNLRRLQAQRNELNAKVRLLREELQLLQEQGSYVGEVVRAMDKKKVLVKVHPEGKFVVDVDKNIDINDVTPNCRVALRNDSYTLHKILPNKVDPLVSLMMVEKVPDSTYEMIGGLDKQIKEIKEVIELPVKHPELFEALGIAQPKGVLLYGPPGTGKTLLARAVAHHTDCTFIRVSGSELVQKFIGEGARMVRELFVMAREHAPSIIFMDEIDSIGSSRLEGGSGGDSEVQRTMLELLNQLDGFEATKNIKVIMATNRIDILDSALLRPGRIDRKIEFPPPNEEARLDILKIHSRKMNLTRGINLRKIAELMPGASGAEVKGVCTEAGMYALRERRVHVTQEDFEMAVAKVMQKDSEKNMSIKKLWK

As for `CC1(O)CCOC(=O)C1` (racemic) [MVA, (±)-β-hydroxy-β-methyl-δ-valerolactone], the “bbs4 morphant zebrafish with CE defects” value in assay [1] (9±1 ss, 47.8% without MVA) was 11.4%. Moreover, the “bbs4 morphants with CE and somitic defects” value in [1] (blind scoring at 9±1 ss) is “rescues”. In [2], the “ectopic expression of her4 in neural structures” value is reported as “reduced”.
In the case of `CC(C)C[C@@H](C=O)NC(=O)[C@H](CC(C)C)NC(=O)[C@H](CC(C)C)NC(=O)OCc1ccccc1` [MG132] (Cbz-Leu-Leu-Leu-aldehyde), in [3], the “NICD protein levels, of basal levels” value turned out to be 93%. For the same molecule, in [4], the “JAG1 levels, of basal levels” value is on record as 99%±38%.
`CC(=O)N[C@@H](CSC(=O)[C@]1([C@@H](O)C(C)C)NC(=O)[C@H](C)[C@@H]1O)C(=O)O` [lactacystin]: the “NICD protein levels, of basal levels” value in assay [3] was found to be 138%.
Turning to B1, the binding result in assay [5] and in assay [6] was “no binding” in each case.
Take B2: the binding result in assay [6] was “no binding”.
On the same count and under the same terms, next, B3: “no binding”.
Turning to B4, the binding result in assay [7], in [8] and in assay [9] was “no binding” throughout.
